Test results from article doi:10.1101/2023.04.10.536149.

B1: unlabelled MARE competitor (dsDNA)
DNA 1: TGCTGACTCAGCA
DNA 2: TGCTGAGTCAGCA
B2: IRDye700 MARE EMSA probe (dsDNA)
DNA 1: TGCTGACTCAGCA
DNA 2: TGCTGAGTCAGCA

Assays:
MBP-MafB WT [1] = target: T1, MBP-MafB WT (Homo sapiens, UniProt Q9Y5Q3 1-323); experiment: competition
MBP-MafB WT [2] = target: T1, MBP-MafB WT; experiment: EMSA
MBP-MafB ΔHis = MBP-MafB ΔHis (Homo sapiens, UniProt Q9Y5Q3 1-323, del131-167); experiment: EMSA

Binder | binding result (MBP-MafB WT [1]) | binding result (MBP-MafB WT [2]) | binding result (MBP-MafB ΔHis)
B1 | binds |  | 
B2 |  | binds | binds
